B1: LINE1-mini (parent)
chain: GGCAGAGCUCAACACAGCGUGGCAAAGUGGCUGUGGCUAGACUGCC

Variants of: B1
Test: self-cleavage, relative activity (ratio to wild type); higher = more cleavage; in vitro, sequencing; the parent is a self-cleaving ribozyme

Row | Variant | self-cleavage
1 | A12G G19A | 0.17
2 | G5C A25U | 0.09
3 | A24C U28G | 0.35
4 | G22A G40C | 0.09
5 | A6U G40A | 0.35
6 | A4C A39C | 0.07
7 | A14G C46A | 0.2
8 | G22U G40A | 0.2
9 | G22U G40U | 0.15
10 | U20A A41G | 0.36
11 | C18A G21C | 0.96
12 | C18A G21U | 0.77
13 | C37A A41G | 0.12
14 | A4G G7A | 0.25
15 | G33U G36U | 0.05
16 | G7U C18A | 0.08
17 | C15G G30U | 0.03
18 | G2A G17C | 0.32
19 | G7C G17C | 0.1
20 | C31A G35A | 0.04
21 | U20G C31U | 0.11
22 | C18U G27U | 1.63
23 | C31U | 0.26
24 | G30U A41G | 0.35

Row | Variant | self-cleavage
25 | A11G G22U | 0.05
26 | C23G G29C | 0.26
27 | G2A U9G | 0.25
28 | A16U U20G | 0.03
29 | C13G C46A | 0.28
30 | U34C U38C | 0.07
31 | A12C G33A | 0.05
32 | G1U G19C | 0.2
33 | U32G G33A | 0.08
34 | C18U C45U | 1.45
35 | C37A U43G | 0.08
36 | C8U U38G | 0.04
37 | C13U C45A | 0.05
38 | G1A U32G | 0.09
39 | G19U G21U | 0.58
40 | G22U G44A | 0.85
41 | G17C C46U | 0.5
42 | U20A C46A | 0.76
43 | G1A A6U | 1.55
44 | G17A A24U | 0.38
45 | C31U C46G | 0.08
46 | G40A C46U | 0.14
47 | U9C G33A | 0.06
48 | C3A C23U | 0.71

Row | Variant | self-cleavage
49 | G19A U28C | 0.51
50 | G35C G44U | 0.06
51 | A6G G36U | 0.04
52 | A6G G36A | 0.13
53 | C10A C37G | 0.01
54 | A6C G36C | 0.16
55 | G33U U43G | 0.02
56 | A14U G27A | 0.37
57 | C31G G35C | 0.05
58 | G7U G30U | 0.1
59 | G7A U38G | 0.02
60 | G27C C45G | 0.32
61 | A6G U38A | 0.06
62 | G19C C42A | 0.14
63 | G22C G44C | 0.41
64 | C31U C45U | 0.18
65 | G27C C31A | 0.15
66 | A4U C23G | 0.37
67 | G2U G19U | 0.05
68 | A41C C42G | 0.07
69 | G19A G36C | 0.16
70 | G2U A24G | 0.06
71 | A6U G33U | 0.16
72 | C23G G35C | 0.12

Row | Variant | self-cleavage
73 | G36A C45G | 0.13
74 | C13U G35A | 0.71
75 | U9C G35C | 0.04
76 | A26C C46U | 1.46
77 | G27A G29A | 0.65
78 | A25C C37A | 0.11
79 | A16U G22C | 0.28
80 | G7C G29C | 0.05
81 | C10G C15U | 0.09
82 | A6C U34G | 0.25
83 | U9C A25C | 0.03
84 | G27A G33C | 0.08
85 | G2A A16U | 0.33
86 | A24U U43A | 0.3
87 | U34A G40C | 0.04
88 | G2U C46A | 0.09
89 | G7U G27A | 0.07
90 | A26U U34A | 0.07
91 | G22U U43G | 0.03
92 | A12C G36A | 0.2
93 | G21U G27C | 0.54
94 | C10G G22A | 0.13
95 | A26C U43A | 0.07
96 | C13G G40C | 0.14

Row | Variant | self-cleavage
97 | A12C A39C | 0.03
98 | G27A C31A | 1.09
99 | C3U U20A | 0.28
100 | A6G C13U | 0.15
101 | C8G A25G | 0.1
102 | C15G G17U | 0.05
103 | C10U A26C | 0.31
104 | U20A U32A | 0.06
105 | A16C G30C | 0.12
106 | C3U U38A | 0.19
107 | A14G A25G | 0.32
108 | A25C C45G | 0.11
109 | G1A G33A | 0.09
110 | A14G G17U | 0.09
111 | G30C G40U | 0.16
112 | G7C C18G | 0.09
113 | A16C G27U | 0.14
114 | C10A G40C | 0.02
115 | U20A G27C | 0.24
116 | G7C U43A | 0.15
117 | A12C A41U | 0.03
118 | G1A G40U | 0.1
119 | A16G A41G | 0.15
120 | A6G G22U | 0.12

Row | Variant | self-cleavage
121 | G19U C46A | 1.08
122 | U28A U38C | 0.38
123 | C18A A39U | 0.76
124 | A4G C15G | 0.14
125 | U9G G19C | 0.06
126 | A12U U20A | 0.12
127 | A14G C45G | 0.2
128 | C13G A41G | 0.09
129 | A16G A25G | 0.04
130 | G27A U32C | 0.15
131 | G7A C18U | 0.12
132 | U28A G36U | 0.08
133 | U9C C10G | 0.03
134 | A39U G40U | 0.14
135 | U34C C42A | 0.09
136 | C13U G30A | 0.15
137 | C10G A24C | 0.06
138 | A16C A41G | 0.02
139 | C8G A41C | 0.14
140 | G35C C42G | 0.04
141 | A4C A6C | 0.09
142 | C23U C37G | 0.02
143 | U38A G44A | 0.28
144 | A6G A25G | 0.07

Row | Variant | self-cleavage
145 | A6G A25U | 0.1
146 | A24C C31G | 0.03
147 | C23A G36C | 0.07
148 | G2C C18A | 0.06
149 | A14G C18G | 0.21
150 | U9C G30U | 0.02
151 | A11C G27U | 0.05
152 | C13G C31A | 0.16
153 | G7U A14U | 0.11
154 | C3G C10U | 0.19
155 | C15A C46G | 0.05
156 | A6C G33C | 0.07
157 | A6C G33U | 0.09
158 | A14G G22U | 0.98
159 | G21A G33A | 0.08
160 | U9G C10A | 0.03
161 | A11C C31G | 0.01
162 | A4G G22U | 1.14
163 | C15G G19U | 0.03
164 | U9G C15A | 0.1
165 | G33A G44U | 0.03
166 | A6U G17A | 0.11
167 | A6U C37G | 0.04
